We go through six molecules from publication PMC5510989.

The labels stand for the following.
B1: MBP-DDX1 WT (DEAD-Box Protein 1 fused to maltose binding protein) (enzyme)
chain: MAAFSEMGVMPEIAQAVEEMDWLLPTDIQAESIPLILGGGDVLMAAETGSGKTGAFSIPVIQIVYETLKDQQEGKKGKTTIKTGASVLNKWQMNPYDRGSAFAIGSDGLCCQSREVKEWHGCRATKGLMKGKHYYEVSCHDQGLCRVGWSTMQASLDLGTDKFGFGFGGTGKKSHNKQFDNYGEEFTMHDTIGCYLDIDKGHVKFSKNGKDLGLAFEIPPHMKNQALFPACVLKNAELKFNFGEEEFKFPPKDGFVALSKAPDGYIVKSQHSGNAQVTQTKFLPNAPKALIVEPSRELAEQTLNNIKQFKKYIDNPKLRELLIIGGVAARDQLSVLENGVDIVVGTPGRLDDLVSTGKLNLSQVRFLVLDEADGLLSQGYSDFINRMHNQIPQVTSDGKRLQVIVCSATLHSFDVKKLSEKIMHFPTWVDLKGEDSVPDTVHHVVVPVNPKTDRLWERLGKSHIRTDDVHAKDNTRPGANSPEMWSEAIKILKGEYAVRAIKEHKMDQAIIFCRTKIDCDNLEQYFIQQGGGPDKKGHQFSCVCLHGDRKPHERKQNLERFKKGDVRFLICTDVAARGIDIHGVPYVINVTLPDEKQNYVHRIGRVGRAERMGLAISLVATEKEKVWYHVCSSRGKGCYNTRLKEDGGCTIWYNEMQLLSEIEEHLNCTISQVEPDIKVPVDEFDGKVTYGQKRAAGGGSYKGHVDILAPTVQELAALEKEAQTSFLHLGYLPNQLFRTF
B2: MBP-DDX1 K52N (enzyme)
chain: B1 chain with K52N
B3: MBP-DDX1 L303E (enzyme)
chain: B1 chain with L303E
B4: MBP-DDX1 G325E (enzyme)
chain: B1 chain with G325E
B5: MBP-DDX1 L322E (enzyme)
chain: B1 chain with L322E

Substitutions are numbered along the chain they refer to. In names and notes the source's numbering stands.

The assay deals with HIV-1 Rev (Regulator of Expression of Virion), Alexa-labelled (HIV-1 isolate BH10). As to the kind of experiment: fluorescence polarisation. Background: Fluorescence polarisation rises when a labelled molecule tumbles more slowly, as on binding a larger partner.
For “MBP-DDX1 DEAD N-term + SPRY (domain or fragment)”, the Kd – broadly, the free concentration of one partner at which half of the binding sites on the other are occupied at equilibrium, for simple one-to-one binding – is 43 nM.

For the molecule B1, the dissociation constant (Kd) was determined as 59 nM.

In the case of B2, the Kd is 65 nM.

In turn, B3 yielded a Kd greater than 700 nM.

On to B4, for which the Kd is 29 nM.

In the case of B5, the Kd was greater than 500 nM.
